Positions count from the first letter of the chain named. One block for each binder: values may come before it.
Tests used:
[1] = target: T1, cynomolgus CD39 (full length, on CHOK1-cynoCD39 cells) (cynomolgus monkey, UniProt A0A7N9DGH8 1-510); assay: FACS, CHOK1-cynoCD39 cells
T1 construct: whole, on cells; also called cCD39
T1 sequence: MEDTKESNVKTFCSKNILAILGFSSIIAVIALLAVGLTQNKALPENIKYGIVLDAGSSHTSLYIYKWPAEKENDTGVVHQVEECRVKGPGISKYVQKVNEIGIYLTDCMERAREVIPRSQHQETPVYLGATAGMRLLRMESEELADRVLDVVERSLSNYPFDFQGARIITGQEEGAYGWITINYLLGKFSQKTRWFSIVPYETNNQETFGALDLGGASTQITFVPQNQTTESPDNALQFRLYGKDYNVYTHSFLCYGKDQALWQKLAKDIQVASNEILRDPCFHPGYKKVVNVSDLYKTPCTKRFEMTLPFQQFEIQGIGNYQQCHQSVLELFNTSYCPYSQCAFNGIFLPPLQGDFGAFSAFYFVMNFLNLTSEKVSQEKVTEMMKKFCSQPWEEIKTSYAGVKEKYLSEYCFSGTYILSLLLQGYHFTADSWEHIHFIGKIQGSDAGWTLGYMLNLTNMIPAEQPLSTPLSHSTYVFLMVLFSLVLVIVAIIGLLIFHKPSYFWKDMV
Method: CHOK1-hCD39, CHOK1-cCD39, CHOK1-mCD39 and CHOK1-blank cells were maintained in culture medium according to ATCC procedure. Cells were collected and re-suspended in blocking buffer at a density of 3×10⁶ cells/ml. Cells were transferred to 96 well FACS plates at 100 μl/well (3×10⁵ cells/well), the plates were centrifuged and washed twice with FACS buffer (PBS, 1% FBS, 0.05% Tween-20). 4-folds serial dilution of anti-CD39 antibodies were prepared in FACS buffer starting from 30 μg/ml. Reference antibody 9-8B and mouse/human control IgG were used as positive and negative controls, respectively. Cells were re-suspended in 100 μL/well diluted antibodies, and the plates were incubated at 4° C. for 60 min. […] The plates were washed with FACS buffer, and cells were re-suspended in 100 μL/well of PBS. Cells were then analyzed with FACSVerse™ and mean fluorescence intensity were determined. Full binding curves were generated on the CD39 expressing cells by testing a range of antibody concentrations. Apparent affinity was determined for each antibody using Prism software. […]
Reference antibodies T895 and 1394 were tested in parallel as control antibodies. […] Maximum signal (mean fluorescence intensity, MFI) differed between cells for each antibody may result from their different expression level.

[2] = target: T2, human CD39 (full length, on cells) (human, UniProt P49961 1-510); assay: FACS, MOLP-8 cells
T2 construct: Recombinant on CHOK1-hCD39 cells or natural on SK-MEL-28, SK-MEL-5 and MOLP-8 cells; the cell line is named under assay; also called hCD39; ENTPD1
T2 sequence: T1 sequence with I47V, Y94F, I221V, T230I, V329I, N368K, S391A, V489F, I490T
Method: Similarly, human CD39 expressing cells SK-MEL-5, SK-MEL-28 or MOLP-8, were incubated with a gradient concentration of anti-CD39 antibodies for 30 minutes at 4° C. Cells were washed 3 times using FACS buffer and next incubated with fluorescence labelled secondary antibody (goat-anti-mouse IgG or goat anti-human IgG) for 30 minutes at 4° C. Cells were washed 3 times and then re-suspended in FACS buffer and analyzed by flow cytometry analysis on BD Celesta. Data plotted and analyzed using GraphPad Prism 8.02.
Binding affinity of the humanized antibodies hu23.H5L5 and hu14.H1L1 were tested on different cells by FACS following the similar method as described in Example 3.2.
Reference antibodies T895 and 1394 were tested in parallel as control antibodies. As shown in FIG. 12 and summarized in Table 23, both antibodies hu23.H5L5 and hu14.H1L1 bound to human and cynomolgus CD39 expressing cells in a dose-dependent manner and with similar affinity by EC₅₀ at a sub-nanomolar or nanomolar level. Neither of them recognized mouse CD39 in the FACS study. Maximum signal (mean fluorescence intensity, MFI) differed between cells for each antibody may result from their different expression level.

[3] = target: T2, human CD39 (full length, on cells); assay: cell-based or functional assay
[4] = target: T2, human CD39 (full length, on cells); assay: FACS, CHOK1-hCD39 cells
In short: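 Cells incubated 60 min at 4 °C with anti-CD39 antibodies in 4-fold serial dilution from 30 μg/ml in PBS/1% FBS/0.05% Tween-20; CHOK1-blank cells as negative control. Binding read by flow cytometry as mean fluorescence intensity; apparent affinity fitted from full binding curves.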

[5] = target: T2, human CD39 (full length, on cells); assay: FACS, SK-MEL-28 cells
In short: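 SK-MEL-28 cells (natural human CD39) incubated with graded anti-CD39 antibody concentrations, 30 min at 4° C, washed, then stained with fluorescent anti-mouse or anti-human IgG secondary, 30 min at 4° C. Binding read by flow cytometry.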

[6] = target: T2, human CD39 (full length, on cells); assay: FACS competition on CHOK1-hCD39; competitor 9-8B-Alexa488
Method: Anti-CD39 antibodies were labeled using Alex488 labeling kit and were diluted in a series of concentrations, before mixing with CHOK1-hCD39 cells to test binding EC₅₀using FACS. The non-labeled antibodies were tested for their blocking efficacy to the labelled ones. Briefly, mononuclear CHOK1-hCD39 cells were prepared to 2×10⁶/ml and plated into 96 well at 50 μl/well, then mixed with antibodies gradients to final volume at 100 μl, and then equal volume of Alex488 label antibodies were added at two folds EC80 concentration. 96 well plates were incubated at 4° C. for 1 hour, and spun down and washed 3 times with 200 μl FACS buffer. The FACS analysis was performed on FACScelesta machine and data was analyzed by Flowjo software. The blocking percentages were calculated and those having above 80% competition rate were allocated into one epitope group, compared with the non-competing well (Alex488 labeled antibody only).
Based on the competition results, the 4 anti-CD39 hybridoma antibodies (mAb14, mAb19, mAb21, mAb23) can be grouped into 4 different epitope groups, as shown in Table 11.

B1: hu23.H5L5 (antibody, V domains shown)
VH: QVQLVQSGAEVKKPGASVKVSCKASGYNLKDTFLHWVRQAPGQGLEWMGRIDPANGNIKYDPKFQGRVTITADTSANTAYMELISLRSEDTAVYYCANSPYYYGSGYRIFDVWGQGTTVTVSS
VL: QIVLTQSPATLSLSPGERATLSCSAFSSVNYMHWYQQKPGQAPRLLIYTTSNLASGIPTRFSGSGSGTSYTLTISSLEPEDFAVYYCQQRSTYPFTFGQGTKLEIK
notes: humanized c23
EC50 [1]: 3.38 nM | EC50 [2]: 0.14 nM

B3: Antibody 9-8B (antibody, V domains shown)
VH: QIQLVQSGPELKKPGETVKISCKASGYTFTHYGMNWVKQAPGKGLKWMGWINTYTGELTYADDFKGRFAFSLETSASTAYLQINNLKNEDTATYFCARRAYYRYDYVMDYWGQGTSVTVSS
VL: DIVMTQSQKFMSTSVGDRVSVTCKASHNVGTNVAWYQQKPGQSPKALIYSASYRYSGVPGRFTGSGSGTDFTLTISNVQSEDLAEYFCHQYNNYPYTFGGGTKLEIK
SK-MEL-28 cell based ATPase inhibition % at 10 nM [3]: 21% | EC50 [4]: 1.7 nM | EC50 [5]: 0.8 nM | blocking percentage [6]: 98%

The next lines start with the values.

EC50 [1]: 4.19 nM | EC50 [2]: 0.11 nM
B2: Antibody T895 (antibody, V domains shown)
VH: EVQLQQSGPELVKPGASVKMSCKASGYTFTDYNMHWVKQSHGRTLEWIGYIVPLNGGSTFNQKFKGRATLTVNTSSRTAYMELRSLTSEDSAAYYCARGGTRFAYWGQGTLVTVSA
VL: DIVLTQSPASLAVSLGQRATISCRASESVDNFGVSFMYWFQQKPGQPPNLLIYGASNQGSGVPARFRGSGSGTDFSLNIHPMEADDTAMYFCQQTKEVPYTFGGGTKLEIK
notes: also called 31895

SK-MEL-28 cell based ATPase inhibition % at 10 nM [3]: 57% | EC50 [4]: 2.5 nM | EC50 [5]: 28 nM | blocking percentage [6]: -11%
B4: mAb14 (antibody, V domains shown)
VH: EVKLEESGGGLVQPGGSMKLSCVASGFTFSKYWMNWVRQSPEKGLEWVAEIRLKSNKYGTHYAESVKGRFTISRDDSKNNVYLQMNNLRPEDTGIYYCTTQLDLYWFFDVWGAGTTVTVSS
VL: DIVMTQSPAILSVTPGDRVSLSCRASQSISDYLHWYQQKSHESPRLLIKYASQSISGIPSRFSGSGSGSNFTLSINSVEPEDVGVYFCQNGHSLPLTFGAGTKLELR
notes: mouse hybridoma antibody

Reference: US20210388105A1 (ELPISCIENCE SUZHOU BIOPHARMA, published 2021)
